Results published in patent EP4703382A1 (Kanglitai Biomedical (Qingdao) Co., Ltd., dated 2026).
Residue numbers refer to the chain shown, from its start. Values joined by “and” are separate entries in the source; they are usually repeats but may differ in a detail not shown here. Identical values can stand only once.

B1: PDL1-1v1 (VHH)
VHH: EVQLLESGGGLVQPGGSLRLSCAASGFTVSNSAVSWARQAPGKGLEWVSLIDSNRNTVYAQSVRGRFTISRDNSKNTVYLQMNSLRAEDTAVYYCAKGIWGSTLWGQGTTVTVSS
notes: Humanized PDL1-1, His-tagged, from 293-F
B2: PDL1-1v3 (VHH)
VHH: B1 VHH with E1Q
notes: Humanized PDL1-1, His-tagged
B3: PDL1-1v6 (VHH)
VHH: B1 VHH with R86K
notes: Humanized PDL1-1, His-tagged
B4: PDL1-1v10 (VHH)
VHH: B1 VHH with D52A
notes: Humanized PDL1-1, His-tagged
B5: PDL1-1v8 (VHH)
VHH: B1 VHH with W105T
notes: Humanized PDL1-1, His-tagged
B6: PDL1-1v4 (VHH)
VHH: B1 VHH with L5Q
notes: Humanized PDL1-1, His-tagged
B7: PDL1-1v7 (VHH)
VHH: B1 VHH with A87P
notes: Humanized PDL1-1, His-tagged
B8: PDL1-1v9 (VHH)
VHH: B1 VHH with T110Q
notes: Humanized PDL1-1, His-tagged
B9: PDL1-1v15 (VHH)
VHH: B1 VHH with E1Q, L5V, Q13K, S74A
notes: Humanized PDL1-1, His-tagged
B10: PDL1-1v2 (VHH)
VHH: B1 VHH with E1Q, L5V, Q13K, S74A, T77S
notes: Humanized PDL1-1, His-tagged
B11: PDL1-1v11 (VHH)
VHH: B1 VHH with E1Q, L5Q, Q13K, S74A, T77S
notes: Humanized PDL1-1, His-tagged
B12: PDL1-1v16 (VHH)
VHH: B1 VHH with E1Q, L5V, Q13K, S74A, T77S, R86K
notes: Humanized PDL1-1, His-tagged
B13: PDL1-1v14 (VHH)
VHH: B1 VHH with E1Q, L5V, Q13K, S74V, T77S
notes: Humanized PDL1-1, His-tagged
B14: PDL1-1v12 (VHH)
VHH: B1 VHH with E1Q, L5V, S74A, T77S
notes: Humanized PDL1-1, His-tagged
B15: PDL1-1v13 (VHH)
VHH: B1 VHH with E1Q, L5V, Q13K, R19T, S74A, T77S
notes: Humanized PDL1-1, His-tagged
B16: PDL1-1v17 (VHH)
VHH: B1 VHH with E1Q, L5V, Q13K, S74A, T77S, A87P
notes: Humanized PDL1-1, His-tagged
B17: PDL1-1v19 (VHH)
VHH: B1 VHH with E1Q, L5V, Q13K, S74A, T77S, T110Q
notes: Humanized PDL1-1, His-tagged
B18: PDL1-1v20 (VHH)
VHH: B1 VHH with E1Q, L5V, Q13K, D52A, S74A, T77S
notes: Humanized PDL1-1, His-tagged
B19: PDL1-1v18 (VHH)
VHH: B1 VHH with E1Q, L5V, Q13K, S74A, T77S, W105T
notes: Humanized PDL1-1, His-tagged
B20: Fusion 1 (other, murine)
chain 1: RVIPVSGPARCLSQSRNLLKTTDDMVKTAREKLKHYSCTAEDIDHEDITRDQTSTLKTCLPLELHKNESCLATRETSSTTRGSCLPPQKTSLMMTLCLGSIYEDLKMYQTEFQAINAALQNHNHQQIILDKGMLVAIDELMQSLNHNGETLRQKPPVGEADPYRVKMKLCILLHAFSTRVVTINRVMGYLSSAGGGGSGGGGSGGGGSQVQLQESGGGLVQPGGSLTLSCAASGFTVSNSAVSWARQAPGKGLEWVSLIDSNRNTVYAQSVRGRFTISRDNVKNTVYLQMNSLKPEDTAVYYCAKGIWGSTLTGQGTQVTVSSHHHHHHHH
chain 2: MWELEKDVYVVEVDWTPDAPGETVNLTCDTPEEDDITWTSDQRHGVIGSGKTLTITVKEFLDAGQYTCHKGGETLSHSHLLLHKKENGIWSTEILKNFKNKTFLKCEAPNYSGRFTCSWLVQRNMDLKFNIKSSSSSPDSRAVTCGMASLSAEKVTLDQRDYEKYSVSCQEDVTCPTAEETLPIELALEARQQNKYENYSTSFFIRDIIKPDPPKNLQMKPLKNSQVEVSWEYPDSWSTPHSYFSLKFFVRIQRKKEKMKETEEGCNQKGAFLVEKTSTEVQCKGGNVCVQAQDRYYNSSCSKWACVPCRVRS
notes: PDL1-1 nanobody fused with murine IL-12; two plasmids co-transfected 1:1; also called mP35-P1-8his + mP40
B21: Fusion 2 (other, murine)
chain 1: RVIPVSGPARCLSQSRNLLKTTDDMVKTAREKLKHYSCTAEDIDHEDITRDQTSTLKTCLPLELHKNESCLATRETSSTTRGSCLPPQKTSLMMTLCLGSIYEDLKMYQTEFQAINAALQNHNHQQIILDKGMLVAIDELMQSLNHNGETLRQKPPVGEADPYRVKMKLCILLHAFSTRVVTINRVMGYLSSAHHHHHH
chain 2: MWELEKDVYVVEVDWTPDAPGETVNLTCDTPEEDDITWTSDQRHGVIGSGKTLTITVKEFLDAGQYTCHKGGETLSHSHLLLHKKENGIWSTEILKNFKNKTFLKCEAPNYSGRFTCSWLVQRNMDLKFNIKSSSSSPDSRAVTCGMASLSAEKVTLDQRDYEKYSVSCQEDVTCPTAEETLPIELALEARQQNKYENYSTSFFIRDIIKPDPPKNLQMKPLKNSQVEVSWEYPDSWSTPHSYFSLKFFVRIQRKKEKMKETEEGCNQKGAFLVEKTSTEVQCKGGNVCVQAQDRYYNSSCSKWACVPCRVRSGGGGSGGGGSGGGGSQVQLQESGGGLVQPGGSLTLSCAASGFTVSNSAVSWARQAPGKGLEWVSLIDSNRNTVYAQSVRGRFTISRDNVKNTVYLQMNSLKPEDTAVYYCAKGIWGSTLTGQGTQVTVSS
notes: PDL1-1 nanobody fused with murine IL-12; two plasmids co-transfected 1:1; also called mP35-6his + mP40-P1
B22: Fusion 3 (other, murine)
chain 1: QVQLQESGGGLVQPGGSLTLSCAASGFTVSNSAVSWARQAPGKGLEWVSLIDSNRNTVYAQSVRGRFTISRDNVKNTVYLQMNSLKPEDTAVYYCAKGIWGSTLTGQGTQVTVSSGGGGSGGGGSGGGGSRVIPVSGPARCLSQSRNLLKTTDDMVKTAREKLKHYSCTAEDIDHEDITRDQTSTLKTCLPLELHKNESCLATRETSSTTRGSCLPPQKTSLMMTLCLGSIYEDLKMYQTEFQAINAALQNHNHQQIILDKGMLVAIDELMQSLNHNGETLRQKPPVGEADPYRVKMKLCILLHAFSTRVVTINRVMGYLSSAHHHHHHHH
chain 2: B20 chain 2
notes: PDL1-1 nanobody fused with murine IL-12; two plasmids co-transfected 1:1; also called P1-mP35-8his + mP40
B23: Fusion 4 (other, murine)
chain 1: B21 chain 1
chain 2: QVQLQESGGGLVQPGGSLTLSCAASGFTVSNSAVSWARQAPGKGLEWVSLIDSNRNTVYAQSVRGRFTISRDNVKNTVYLQMNSLKPEDTAVYYCAKGIWGSTLTGQGTQVTVSSGGGGSGGGGSGGGGSMWELEKDVYVVEVDWTPDAPGETVNLTCDTPEEDDITWTSDQRHGVIGSGKTLTITVKEFLDAGQYTCHKGGETLSHSHLLLHKKENGIWSTEILKNFKNKTFLKCEAPNYSGRFTCSWLVQRNMDLKFNIKSSSSSPDSRAVTCGMASLSAEKVTLDQRDYEKYSVSCQEDVTCPTAEETLPIELALEARQQNKYENYSTSFFIRDIIKPDPPKNLQMKPLKNSQVEVSWEYPDSWSTPHSYFSLKFFVRIQRKKEKMKETEEGCNQKGAFLVEKTSTEVQCKGGNVCVQAQDRYYNSSCSKWACVPCRVRS
notes: PDL1-1 nanobody fused with murine IL-12; two plasmids co-transfected 1:1; also called mP35-6his + P1-mP40

What follows are binders tested against T1, human PDL1-Fc fusion protein (human) (assay: ELISA, human PDL1-Fc coated 200 ng/well, anti-His HRP).
T1 construct: also called human PDL1-Fc recombinant protein
T1 sequence (chain, as listed by the source limits assumed): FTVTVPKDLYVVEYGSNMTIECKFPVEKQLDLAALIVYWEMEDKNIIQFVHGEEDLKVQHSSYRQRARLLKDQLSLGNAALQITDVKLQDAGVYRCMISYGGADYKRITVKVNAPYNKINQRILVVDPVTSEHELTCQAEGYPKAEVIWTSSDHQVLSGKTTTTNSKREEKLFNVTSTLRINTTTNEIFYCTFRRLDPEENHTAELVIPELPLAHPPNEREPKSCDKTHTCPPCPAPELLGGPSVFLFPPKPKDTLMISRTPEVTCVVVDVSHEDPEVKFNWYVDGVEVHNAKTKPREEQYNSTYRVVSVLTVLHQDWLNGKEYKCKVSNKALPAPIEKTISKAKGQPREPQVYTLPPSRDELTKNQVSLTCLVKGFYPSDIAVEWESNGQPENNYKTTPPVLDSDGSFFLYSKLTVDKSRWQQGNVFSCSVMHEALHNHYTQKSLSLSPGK

Binder | EC50 [µg/mL]
B1 | 0.0275
B2 | 0.0336
B3 | 0.0505
B4 | ~110
B5 | 0.0108

Target: T1, human PDL1-Fc fusion protein
Assay: as above
Remark: another data set of the same source

Binder | EC50 [µg/mL]
B1 | 0.0251
B6 | 4
B7 | 0.028
B8 | 0.026

Target: T1, human PDL1-Fc fusion protein
Assay: as above
Remark: another data set of the same source

Binder | EC50 [µg/mL]
B9 | 0.0432
B10 | 0.0423
B11 | 0.02
B12 | 0.0629
B13 | 0.0342

Target: T1, human PDL1-Fc fusion protein
Assay: as above
Remark: another data set of the same source

Binder | EC50 [µg/mL]
B10 | 0.0591
B14 | 1.24
B15 | 0.0461
B16 | 0.0664
B17 | 0.0484
B18 | 0.875
B19 | 0.0182

Target: T1, human PDL1-Fc fusion protein
Assay: as above
Remark: another data set of the same source

Binder | EC50
B20 | 0.373 µg/mL and 4.93 nM
B21 | 4.1 µg/mL and 54.3 nM
B22 | 0.251 µg/mL and 3.33 nM
B23 | 0.75 µg/mL and 9.91 nM

What follows are binders tested against T1, human PDL1-Fc fusion protein (assay: BLI (ForteBIO Octet QKe), PDL1-Fc loaded, analyte 100 nM).

Binder | Kd [nM]
B9 | 10.8
B1 | 13.1
B10 | 14.3
B2 | 18.5
B6 | 1320
B3 | 22.1
B7 | 10.9
B8 | 12.1
B4 | 30.5
B11 | 5.86
B14 | 389
B15 | 11.4
B12 | 14.3
B16 | 10.2
B17 | 9.86
B18 | 32.5
B19 | 4.16
B5 | 5.9
B13 | 7.37

Each binder was assayed against T2, recombinant protein PD-L1-His (human, UniProt Q9NZQ7 19-238) (assay: competitive ELISA, PDL1-his coated, competitor PD1-Fc 50 µg/mL).
T2 construct: also called PD-L1-his fusion protein; human PDL1-his protein
T2 sequence (Q9NZQ7 19-238 limits assumed): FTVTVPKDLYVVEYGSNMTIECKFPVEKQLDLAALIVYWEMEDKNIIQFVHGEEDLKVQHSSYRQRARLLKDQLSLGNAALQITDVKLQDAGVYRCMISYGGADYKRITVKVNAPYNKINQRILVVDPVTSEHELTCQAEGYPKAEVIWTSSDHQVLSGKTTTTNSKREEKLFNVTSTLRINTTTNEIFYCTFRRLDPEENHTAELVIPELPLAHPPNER

Binder | IC50 [µg/mL]
B11 | 31.1
B17 | 18.8
B19 | 5.22
B5 | 5.58
B13 | 37.1

These binders were tested against T3, human PD-L1 expressed on Raji cells (human, UniProt Q9NZQ7 19-290) (assay: flow cytometry competition on Raji-PDL1 cells, competitor PD1-Fc).
T3 construct: whole, on cells; also called Raji-PDL1; PDL1 protein expressed on Raji cells
T3 sequence (Q9NZQ7 19-290): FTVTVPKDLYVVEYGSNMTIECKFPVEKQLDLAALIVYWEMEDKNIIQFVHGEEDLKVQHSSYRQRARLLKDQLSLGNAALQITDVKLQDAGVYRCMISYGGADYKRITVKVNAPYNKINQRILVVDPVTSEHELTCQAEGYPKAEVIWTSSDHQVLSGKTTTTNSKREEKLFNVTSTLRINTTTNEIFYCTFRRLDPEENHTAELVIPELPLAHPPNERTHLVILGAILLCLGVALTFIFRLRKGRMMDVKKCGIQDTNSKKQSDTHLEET

Binder | IC50 [µg/mL]
B11 | 2.48
B17 | 2.59
B19 | 0.694
B5 | 0.458
B13 | 4.58
